B1: Azoarcus group I ribozyme (parent)
chain: GUGCCUUGCGCCGGGAAACCACGCAAGGGAUGGUGUCAAAUUCGGCGAAACCUAAGCGCCCGCCCGGGCGUAUGGCAACGCCGAGCCAAGCUUCGGCGCCUGCGCCGAUGAAGGUGUAGAGACUAGACGGCACCCACCUAAGGCAAACGCUAUGGUGAAGGCAUAGUCCAGGGAGUGGCGAAAGUCACACAAACCGG

Variants of: B1
Assay: reverse-splicing fitness (ratio to wild type); higher = more active; in vitro selection; Mg2+ level not given
How it was run: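 An in vitro group I ribozyme library with randomized positions was T7-transcribed and gel-purified. In triplicate, 10 pmol RNA in EPPS pH 7.5 was reacted with 50 pmoles of a 30-nt RNA substrate for 1 h at 37 °C across several added MgCl2 levels (1–48 mM), then stopped with EDTA. Products were reverse transcribed from a substrate-complementary primer, PCR-amplified and sequenced (HiSeq 4000). Fitness is a variant's read proportion after selection over that before, normalised to wild type.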

Variant	reverse-splicing fitness
GUGCCUUGCGCCGGGAAACCACGCAAGGGAUGGUGUCAAAUUCGGCGAAACCUAAGCGCCCGCCCGGGCGUAUGGCAACGCAGAGCCAAGCUUCGGCGCCUGCGCCGAUGCAGGUGUAGCGACUAGACGGCACCCACCUAAGGCCAACGUUAUGGUGAAGGCAUAGUCCAGGGAGUGGCGAAAGUCACACAAACCGG [C82A A111C A120C A145C C150U]	0.0124
GUGCCUUGCGCCGGGAAACCACGCAAGGGAUGGUGUCAAAUUCGGCGAAACCUAAGCGCCCGCCCGGGCGUAUGGCAACGCAGAGCCAAGCUUCGGCGCCUGCGCCGAUGCAGGUGUAGCGACUAGACGGCACCCACCUAAGGCCAACGUUAUGGUGAAGGCAUAGUCGAGGGAGAGGCGAAAGUCACACAAACCGG [C82A A111C A120C A145C C150U C169G U176A]	0.0269
GUGCCUUGCGCCGGGAAACCACGCAAGGGAUGGUGUCAAAUUCGGCGAAACCUAAGCGCCCGCCCGGGCGUAUGGCAACGCAGAGCCAAGCUUCGGCGCCUGCGCCGAUGCAGGUGUAGCGACUAGACGGCACCCACCUAAGGCCAACGUUAUGGUGAAGGCAUAGUCGAGGGAGGGGCGAAAGUCACACAAACCGG [C82A A111C A120C A145C C150U C169G U176G]	0.00659
GUGCCUUGCGCCGGGAAACCACGCAAGGGAUGGUGUCAAAUUCGGCGAAACCUAAGCGCCCGCCCGGGCGUAUGGCAACGCAGAGCCAAGCUUCGGCGCCUGCGCCGAUGCAGGUGUAGCGACUAGACGGCACCCACCUAAGGCCAACGUUAUGGUGAAGGCAUAGUCGAGGGAGCGGCGAAAGUCACACAAACCGG [C82A A111C A120C A145C C150U C169G U176C]	0.0178
GUGCCUUGCGCCGGGAAACCACGCAAGGGAUGGUGUCAAAUUCGGCGAAACCUAAGCGCCCGCCCGGGCGUAUGGCAACGCAGAGCCAAGCUUCGGCGCCUGCGCCGAUGCAGGUGUAGCGACUAGACGGCACCCACCUAAGGCCAACGGUAUGGUGAAGGCAUAGUCCAGGGAGGGGCGAAAGUCACACAAACCGG [C82A A111C A120C A145C C150G U176G]	0.0029
GUGCCUUGCGCCGGGAAACCACGCAAGGGAUGGUGUCAAAUUCGGCGAAACCUAAGCGCCCGCCCGGGCGUAUGGCAACGCAGAGCCAAGCUUCGGCGCCUGCGCCGAUGCAGGUGUAGCGACUAGACGGCACCCACCUAAGGCCAACGGUAUGGUGAAGGCAUAGUCCAGGGAGAGGCGAAAGUCACACAAACCGG [C82A A111C A120C A145C C150G U176A]	0.00409
GUGCCUUGCGCCGGGAAACCACGCAAGGGAUGGUGUCAAAUUCGGCGAAACCUAAGCGCCCGCCCGGGCGUAUGGCAACGCAGAGCCAAGCUUCGGCGCCUGCGCCGAUGCAGGUGUAGCGACUAGACGGCACCCACCUAAGGCCAACGGUAUGGUGAAGGCAUAGUCCAGGGAGCGGCGAAAGUCACACAAACCGG [C82A A111C A120C A145C C150G U176C]	0.00754
GUGCCUUGCGCCGGGAAACCACGCAAGGGAUGGUGUCAAAUUCGGCGAAACCUAAGCGCCCGCCCGGGCGUAUGGCAACGCAGAGCCAAGCUUCGGCGCCUGCGCCGAUGCAGGUGUAGCGACUAGACGGCACCCACCUAAGGCCAACGCUAUGGUGAAGGCAUAGUCGAGGGAGUGGCGAAAGUCACACAAACCGG [C82A A111C A120C A145C C169G]	0.00972
GUGCCUUGCGCCGGGAAACCACGCAAGGGAUGGUGUCAAAUUCGGCGAAACCUAAGCGCCCGCCCGGGCGUAUGGCAACGCAGAGCCAAGCUUCGGCGCCUGCGCCGAUGCAGGUGUAGCGACUAGACGGCACCCACCUAAGGCCAACGCUAUGGUGAAGGCAUAGUCAAGGGAGUGGCGAAAGUCACACAAACCGG [C82A A111C A120C A145C C169A]	0.00691
GUGCCUUGCGCCGGGAAACCACGCAAGGGAUGGUGUCAAAUUCGGCGAAACCUAAGCGCCCGCCCGGGCGUAUGGCAACGCAGAGCCAAGCUUCGGCGCCUGCGCCGAUGCAGGUGUAGCGACUAGACGGCACCCACCUAAGGCCAACGUUAUGGUGAAGGCAUAGUCUAGGGAGUGGCGAAAGUCACACAAACCGG [C82A A111C A120C A145C C150U C169U]	0.0108
GUGCCUUGCGCCGGGAAACCACGCAAGGGAUGGUGUCAAAUUCGGCGAAACCUAAGCGCCCGCCCGGGCGUAUGGCAACGCAGAGCCAAGCUUCGGCGCCUGCGCCGAUGCAGGUGUAGCGACUAGACGGCACCCACCUAAGGCCAACGUUAUGGUGAAGGCAUAGUCGAGGGAGUGGCGAAAGUCACACAAACCGG [C82A A111C A120C A145C C150U C169G]	0.00741
GUGCCUUGCGCCGGGAAACCACGCAAGGGAUGGUGUCAAAUUCGGCGAAACCUAAGCGCCCGCCCGGGCGUAUGGCAACGCAGAGCCAAGCUUCGGCGCCUGCGCCGAUGCAGGUGUAGCGACUAGACGGCACCCACCUAAGGCCAACGUUAUGGUGAAGGCAUAGUCAAGGGAGUGGCGAAAGUCACACAAACCGG [C82A A111C A120C A145C C150U C169A]	0.0105
GUGCCUUGCGCCGGGAAACCACGCAAGGGAUGGUGUCAAAUUCGGCGAAACCUAAGCGCCCGCCCGGGCGUAUGGCAACGCAGAGCCAAGCUUCGGCGCCUGCGCCGAUGCAGGUGUAGCGACUAGACGGCACCCACCUAAGGCCAACGCUAUGGUGAAGGCAUAGUCGAGGGAGAGGCGAAAGUCACACAAACCGG [C82A A111C A120C A145C C169G U176A]	0.0258
GUGCCUUGCGCCGGGAAACCACGCAAGGGAUGGUGUCAAAUUCGGCGAAACCUAAGCGCCCGCCCGGGCGUAUGGCAACGCAGAGCCAAGCUUCGGCGCCUGCGCCGAUGCAGGUGUAGCGACUAGACGGCACCCACCUAAGGCCAACGCUAUGGUGAAGGCAUAGUCGAGGGAGGGGCGAAAGUCACACAAACCGG [C82A A111C A120C A145C C169G U176G]	0.0074
GUGCCUUGCGCCGGGAAACCACGCAAGGGAUGGUGUCAAAUUCGGCGAAACCUAAGCGCCCGCCCGGGCGUAUGGCAACGCAGAGCCAAGCUUCGGCGCCUGCGCCGAUGCAGGUGUAGCGACUAGACGGCACCCACCUAAGGCCAACGCUAUGGUGAAGGCAUAGUCGAGGGAGCGGCGAAAGUCACACAAACCGG [C82A A111C A120C A145C C169G U176C]	0.0213

Reference: the RNAGym collection of RNA variant scans (doi:10.1093/molbev/msab373)
